Assay [1] has as its target T1, CD20 (human B lymphocyte-restricted differentiation antigen, Bp35) on human Burkitt lymphoma cells (Raji, Daudi, Ramos) (human) (UniProt P11836).
T1 sequence (looked up): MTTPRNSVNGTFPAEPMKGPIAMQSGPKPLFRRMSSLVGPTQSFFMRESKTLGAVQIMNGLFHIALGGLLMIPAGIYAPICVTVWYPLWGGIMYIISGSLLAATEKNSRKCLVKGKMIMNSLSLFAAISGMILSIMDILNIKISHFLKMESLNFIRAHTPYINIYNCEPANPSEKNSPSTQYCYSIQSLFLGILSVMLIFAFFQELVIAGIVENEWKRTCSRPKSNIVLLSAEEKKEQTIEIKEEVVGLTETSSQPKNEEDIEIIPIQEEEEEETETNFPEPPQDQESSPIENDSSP
The experiment in a line: cell-based or functional assay.

Assay [2] has as its target T2, CD20 (human B lymphocyte-restricted differentiation antigen, Bp35) on human Burkitt lymphoma cells (Raji, … (human, UniProt P11836 1-297)).
T2 construct: whole, on cells; also called cell-surface CD20
T2 sequence (looked up): T1 sequence (looked up)
The experiment in a line: saturation binding of 125I-labeled MAb to Raji cells, nonlinear regression / Scatchard, replicate assays. As for the experimental part: Raji cells (5×10⁵) were incubated with radioiodinated MAbs in an assay volume of 225 μl, using tissue culture media as diluent, for 1 h at 37° C. or room temperature. Cells then were washed twice with PBS containing 1% horse serum, and cell pellets were counted in a gamma counter. The MAbs were titrated at a 2:3 serial dilution starting with approximately 2×10⁶ cpm/2 μg MAb/tube, run in triplicate. Non-specific binding was measured by including replicate unlabeled MAb.

Assay [3] has as its target T2, CD20 (human B lymphocyte-restricted …). The experiment in a line: flow cytometry dissociation of PE-labeled MAb from Raji cells at 37 C without competing veltuzumab-Fab'-NEM. How it is done: The off-rate was determined by non-linear regression (one phase exponential decay) and P-values were generated by F-test using GraphPad Prism software.
(§1) Cells (Daudi, Raji, or Ramos) in 0.5 mL of CM (phenol red-free RPMI 1640 media supplemented with 10% FBS) at 1×10⁶ cells/mL were incubated with 5 μg of each PE-labeled MAb at room temperature for 30 min, pelleted at 400×g, washed twice with CM, resuspended in 1.5 mL of CM, and split into two 0.75-mL aliquots. […] Subsequent measurements were taken at 30-min intervals. The percent maximal binding, which is the quotient of the MFI at T=X divided by that at T=0, was plotted against time, and the results analyzed by Prism software (GraphPad Software Inc., San Diego, Calif.) to yield the half-life or off-rates.

Assay [4] shares this target. The experiment in a line: flow cytometry dissociation from lymphoma cells, with or without a competitive binder. As for the experimental part:
as §1

Another assay deals with anti-idiotype antibodies. The experiment in a line: binding of radioiodinated MAb to anti-idiotype antibodies.
Assay [5] deals with T2, CD20 (human B lymphocyte-restricted …). The experiment in a line: flow cytometry dissociation of PE-labeled MAb from Daudi, Ramos and Raji cells at 37 C with excess veltuzumab-Fab'-NEM. How it is done: as §1
For assay [6] the target is unchanged. The experiment in a line: flow cytometry dissociation of PE-labeled MAb from Raji cells at 37 C with excess veltuzumab-Fab'-NEM. As for the experimental part: as §1
Assay [7] has as its target T1, CD20 (human B lymphocyte-restricted differentiation antigen, Bp35) on human Burkitt lymphoma cells (Raji, Daudi, Ramos) (human). The experiment in a line: flow cytometry dissociation of PE-labeled MAb from Raji cells at 37 C without competing veltuzumab-Fab'-NEM.

Where a chain is given by its changes, count along the chain named. Names and notes keep the numbering of the source. Bounds are passed on as bounds.

Experimental findings from patent US20100040541A1 (published 2010) are described below.

“hMN-14 IgG (labetuzumab), humanized anti-CEACAM5 monoclonal antibody, negative control” registered an ADCC (% lysis) of Daudi cells with PBMCs, negative control MAb in assay [1] of 9.9 % lysis.

B1: rituximab, chimeric anti-CD20 monoclonal antibody (IDEC-c2B8) (antibody, V domains shown)
VH: QVQLQQPGAELVKPGASVKMSCKASGYTFTSYNMHWVKQTPGRGLEWIGAIYPGNGDTSYNQKFKGKATLTADKSSSTAYMQLSSLTSEDSAVYYCARSTYYGGDWYFNVWGQGTTVTVSS
VL: QIVLSQSPAILSASPGEKVTMTCRASSSVSYIHWFQQKPGSSPKPWIYATSNLASGVPVRFSGSGSGTSYSLTISRVEAEDAATYYCQQWTSNPPTFGGGTK
notes: Commercial chimeric antibody with human constant regions; also called Rmab; Rituxan
With B1, the Kd in assay [2] was 6.7 to 8.63 nM. Further, the “half-life (dissociation)” value in assay [3] worked out at 94 min.

B2: cA20, chimeric anti-CD20 antibody (antibody, V domains shown)
VH: B1 VH with N109D
VL: DIQLTQSPAILSASPGEKVTMTCRASSSVSYIHWFQQKPGSSPKPWIYATSNLASGVPVRFSGSGSGTSYSLTISRVEAEDAATYYCQQWTSNPPTFGGGTKLEIK
notes: Chimeric antibody: murine variable regions on human constant regions
As to B2, the “fold slower off-rate than rituximab or D101N” value in assay [4] is roughly 2.5 fold.

B3: veltuzumab (hA20), humanized anti-CD20 IgG-kappa monoclonal antibody (antibody, V domains shown)
VH: QVQLQQSGAEVKKPGSSVKVSCKASGYTFTSYNMHWVKQAPGQGLEWIGAIYPGNGDTSYNQKFKGKATLTADESTNTAYMELSSLRSEDTAFYYCARSTYYGGDWYFDVWGQGTTVTVSS
VL: DIQLTQSPSSLSASVGDRVTMTCRASSSVSYIHWFQQKPGKAPKPWIYATSNLASGVPVRFSGSGSGTDYTFTISSLQPEDIATYYCQQWTSNPPTFGGGTKLEIK
notes: also called v-mab; Vmab
Turning to B3, in the assay with anti-idiotype antibodies, the immunoreactivity was greater than 90%. The molecule also came in with a Kd in assay [2] of 6.23 to 12 nM. Besides, in assay [5], the “fold longer dissociation half-life than rituximab” value is 2.7 fold. Besides, in assay [3], the “half-life (dissociation)” value was 281 min. For the same molecule, in assay [4], the “fold slower off-rate than rituximab or D101N” value was roughly 2.5 fold.

B4: D101N, mutant of veltuzumab with aspartic acid changed to asparagine at Kabat position 101 in CDRH3 (antibody, name in Kabat numbering, V domains shown)
VH: B3 VH with D109N
VL: B3 VL
notes: It has the same CDRs as rituximab and FRs identical to veltuzumab, with the same constant regions as veltuzumab (hA20-pdHL2 vector); also called D101N-hA20
Take B4: in assay [6], the “fold faster off-rate than rituximab” value amounted to 2 fold and the “fold faster off-rate than veltuzumab” value was found to be 6 fold. The “half-life (dissociation)” value in assay [3] worked out at 42 min.

B5: 1F5, murine anti-CD20 monoclonal antibody (antibody, from another filing, V domains shown)
VH: QVQLRQPGAELVKPGASVKMSCKASGYTFTSYNMHWVKQTPGQGLEWIGAIYPGNGDTSYNQKFKGKATLTADKSSSTAYMQLSSLTSEDSAVYYCARSHYGSNYVDYFDYWGQGTTLTVSS
VL: QIVLSQSPAILSASPGEKVTMTCRASSSLSFMHWYQQKPGSSPKPWIYATSNLASGVPARFSGSGSGTSYSLTISRVEAEDAATYFCHQWSSNPLTFGAGTKLELKR
For B5, in assay [7], the half-life (dissociation) was determined as 195 min.
